{
  "source": "patent US20200231671A1",
  "about": "(E R SQUIBB AND SONS L L C, published 2020)",
  "binders": {"B1": {"name": "11F2 human monoclonal antibody (antibody, IgG2, V domains shown)", "VH": "QVQLVQSGAEVKKPGASVKVSCKVSGYTLTEVSMHWVRQAPGKGLEWMGGFDPEDGETIYAQKFQGRVTMTEDTSTDTAYMELSSLRSEDTAVYYCATAFVVVVAASDYWGQGTLVTVSS", "VL": "EIVLTQSPATLSLSPGERATLSCRASQSVSSYLAWYQQKPGQAPRLLIYDASNRATGIPARFSGSGSGTDFTLTISSLEPEDFAVYYCQQRSNWPWTFGQGTKVEIK"}},
  "molecular_target": "T1, human LAG-3 (cell surface) (human, UniProt P18627 23-525)",
  "T1 construct": "whole, on cells; also called CHO-human LAG-3",
  "T1 sequence (looked up)": "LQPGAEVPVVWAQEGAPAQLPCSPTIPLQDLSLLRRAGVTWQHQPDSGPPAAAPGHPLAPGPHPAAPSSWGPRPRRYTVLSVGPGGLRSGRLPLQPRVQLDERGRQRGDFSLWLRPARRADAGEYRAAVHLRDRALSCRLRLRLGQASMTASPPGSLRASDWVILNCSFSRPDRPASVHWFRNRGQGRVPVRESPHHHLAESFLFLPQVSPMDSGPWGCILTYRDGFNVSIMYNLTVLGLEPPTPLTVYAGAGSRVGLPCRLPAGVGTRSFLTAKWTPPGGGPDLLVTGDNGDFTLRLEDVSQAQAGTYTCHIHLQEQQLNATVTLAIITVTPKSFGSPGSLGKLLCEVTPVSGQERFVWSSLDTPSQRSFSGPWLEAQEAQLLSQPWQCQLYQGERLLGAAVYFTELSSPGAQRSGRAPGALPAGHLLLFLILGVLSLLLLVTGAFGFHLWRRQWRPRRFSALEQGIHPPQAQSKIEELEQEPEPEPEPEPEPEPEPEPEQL",
  "assay": "flow cytometry, CHO cells expressing human LAG-3",
  "method": "To test the ability of the antibodies to bind to cell surface LAG-3 protein, the antibodies were incubated with a CHO cell line that had been transfected to express human LAG-3 on the cell surface. The 25F7, 26H10, 25E3, 8B7, 11F2 and 17E5 monoclonal antibodies were serially diluted with cold lx PFAE buffer (1×PBS+2% FBS, 0.02% sodium azide, 2 mM Na EDTA). For the binding reaction, 50 μl of diluted antibody solution was added to a 50 μl cell suspension containing 2×10⁵ cells and the mixture was incubated on ice for 30 minutes. The cells were then washed two times with 1×PFAE buffer. A 1:100 dilution of FITC-labeled goat anti-human kappa light chain antibody (Bethyl Laboratories, Inc., Cat. # A80-115F) was added and the mixture was incubated for 30 minutes at 4° C., followed by washing twice with cold 1×PFAE buffer. After the final wash, 150 μl of cold 1×PFAE containing 10 μg/mL propidium iodide (Roche Applied Science, Cat #1 348 639) was added to each solution and analysis of antibody binding was carried out by flow cytometry using a FACScalibur flow cytometer (BD Bioscience).",
  "data": [
    {"binder": "B1", "values": [
      {"measurement": "EC50", "result": 15.1, "unit": "nM"}
    ]}
  ]
}
